This is an account of results in article PMC11134355 (JACS Au, 2024).

Holding throughout (test): fluorescence polarisation
Conditions in all cases: both partners purified
In general terms: Fluorescence polarisation rises when a labelled molecule tumbles more slowly, as on binding a larger partner.

In assay [1] the target is TgPDCD5 N-terminal peptide (FITC-MQPEEFA) (T. gondii (GT1 strain), FITC label, printed before the first residue (FITC-MQPEEFA)).
Assay [2] addresses TgPDCD5 middle-position peptide (FITC-VLTPAAQE) (T. gondii (GT1 strain), FITC label, printed before the first residue (FITC-VLTPAAQE)).
Assay [3] addresses TgPDCD5 C-terminal peptide (FITC-KNTPKVTM) (T. gondii (GT1 strain), FITC label, printed before the first residue (FITC-KNTPKVTM)).

B1: TgCyp18 (enzyme)
chain: not shown
In general, Kd refers to the equilibrium constant for the complex coming apart. A low value points to a tighter complex. Consider B1, for which the Kd worked out at 1.41 mM in assay [1], 1.2 mM in assay [2] and 311 µM in assay [3].
